# Patent publication US20150259666A1
# Columns and labels:
# [1] = target: fibrin (clot prepared from fibrinogen with bovine thrombin); test: fibrin clot binding assay, 0.3 mg/ml fibrinogen; bound enzyme = total minus free in supernatant by ELISA
# [2] = target: fibrin (clot prepared from fibrinogen with bovine thrombin); test: fibrin clot binding assay, 0.1 mg/ml fibrinogen; bound enzyme = total minus free in supernatant by ELISA
# [3] = target: fibrin (clot prepared from fibrinogen with bovine thrombin); test: fibrin clot binding assay; ratio of CT-b to full-length t-PA
percent fibrin binding [1] [%],percent fibrin binding [2] [%],fold fibrin binding against full-length t-PA [3] [fold],Substance
51,24,–,full length t-PA (native human tissue plasminogen activator) (from UniProt P00750 36-562) (enzyme)
60,28,1.2,chimeric truncated tissue plasminogen activator (CT t-PA) or CT-b (from UniProt P98119 37-82; P00750 82-214; P00750 297-562) (enzyme)
